{"source": "patent US6342219", "biological_target": "VEGF:Flk-1 complex (VEGF associated with sFlk-1) (human; mouse) (UniProt P15692)", "sequence (P15692 other isoform, or with tags, fused parts or gaps limits assumed, chain 1 of 2)": "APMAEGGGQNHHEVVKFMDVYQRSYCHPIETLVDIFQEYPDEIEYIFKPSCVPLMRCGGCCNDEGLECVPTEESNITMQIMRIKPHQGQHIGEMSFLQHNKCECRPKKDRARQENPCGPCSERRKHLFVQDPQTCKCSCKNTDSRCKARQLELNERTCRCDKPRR", "sequence (P35918 20-762 limits assumed, chain 2 of 2, further chain)": "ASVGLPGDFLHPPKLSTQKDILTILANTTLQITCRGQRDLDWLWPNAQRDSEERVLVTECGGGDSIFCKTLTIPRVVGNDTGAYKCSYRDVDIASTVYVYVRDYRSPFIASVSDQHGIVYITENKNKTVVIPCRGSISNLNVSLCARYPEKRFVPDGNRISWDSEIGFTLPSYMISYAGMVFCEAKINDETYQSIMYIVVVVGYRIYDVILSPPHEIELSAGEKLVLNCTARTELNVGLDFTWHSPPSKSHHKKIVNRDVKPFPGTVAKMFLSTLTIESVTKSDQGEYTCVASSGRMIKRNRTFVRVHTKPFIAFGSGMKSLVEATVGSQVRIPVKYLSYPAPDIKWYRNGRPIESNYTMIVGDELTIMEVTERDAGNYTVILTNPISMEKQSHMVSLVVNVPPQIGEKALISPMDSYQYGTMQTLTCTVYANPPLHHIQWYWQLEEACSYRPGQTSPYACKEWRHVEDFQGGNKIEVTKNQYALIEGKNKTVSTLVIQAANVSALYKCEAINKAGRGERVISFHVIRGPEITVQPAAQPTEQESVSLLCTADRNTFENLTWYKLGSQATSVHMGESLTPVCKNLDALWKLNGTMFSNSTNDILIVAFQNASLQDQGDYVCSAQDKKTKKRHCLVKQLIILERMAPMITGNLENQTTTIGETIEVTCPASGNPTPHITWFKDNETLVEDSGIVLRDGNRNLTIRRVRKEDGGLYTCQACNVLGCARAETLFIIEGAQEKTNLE", "assay": "capture ELISA; biotinylated sFlk-1 complexed with VEGF titrated onto antibody-coated wells; concentration giving 50% maximal binding; * extrapolated value"}
{"substance": "A4.6.1 (mouse anti-human VEGF monoclonal antibody from Genentech)", "values": [{"measurement": "EC50", "value": 0.5, "unit": "µM"}]}
